Measurements as given in patent US20250270341A1 (Alector, published 2025).
Changes are numbered by the printed parent chain.

T1: muCD98hc ECD Avi-His (mouse, UniProt P10852 100-526)
T1 construct: biotinylated on the Avi tag where captured on streptavidin; also called Mouse CD98-AVI-His; Mouse CD98hc-AVI-His
T1 sequence: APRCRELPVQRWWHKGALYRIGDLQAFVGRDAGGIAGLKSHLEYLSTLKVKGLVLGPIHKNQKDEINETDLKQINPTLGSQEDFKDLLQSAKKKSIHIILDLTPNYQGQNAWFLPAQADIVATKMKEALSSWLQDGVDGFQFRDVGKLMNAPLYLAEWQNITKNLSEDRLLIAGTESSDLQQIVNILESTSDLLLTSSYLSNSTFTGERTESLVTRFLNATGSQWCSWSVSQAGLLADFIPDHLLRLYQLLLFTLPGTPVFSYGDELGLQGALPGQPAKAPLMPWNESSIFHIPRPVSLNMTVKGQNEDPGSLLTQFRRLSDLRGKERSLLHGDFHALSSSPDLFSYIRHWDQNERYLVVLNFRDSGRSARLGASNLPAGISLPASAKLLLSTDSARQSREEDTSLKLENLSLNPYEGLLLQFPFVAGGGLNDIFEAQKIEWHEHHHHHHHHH

T2: Full length mouse CD98hc on CHO cells (mouse, UniProt P10852 1-526)
T2 construct: CHO cells stably overexpressing it; also called CHO-mouse CD98hc; CHO-mCD98hc
T2 sequence: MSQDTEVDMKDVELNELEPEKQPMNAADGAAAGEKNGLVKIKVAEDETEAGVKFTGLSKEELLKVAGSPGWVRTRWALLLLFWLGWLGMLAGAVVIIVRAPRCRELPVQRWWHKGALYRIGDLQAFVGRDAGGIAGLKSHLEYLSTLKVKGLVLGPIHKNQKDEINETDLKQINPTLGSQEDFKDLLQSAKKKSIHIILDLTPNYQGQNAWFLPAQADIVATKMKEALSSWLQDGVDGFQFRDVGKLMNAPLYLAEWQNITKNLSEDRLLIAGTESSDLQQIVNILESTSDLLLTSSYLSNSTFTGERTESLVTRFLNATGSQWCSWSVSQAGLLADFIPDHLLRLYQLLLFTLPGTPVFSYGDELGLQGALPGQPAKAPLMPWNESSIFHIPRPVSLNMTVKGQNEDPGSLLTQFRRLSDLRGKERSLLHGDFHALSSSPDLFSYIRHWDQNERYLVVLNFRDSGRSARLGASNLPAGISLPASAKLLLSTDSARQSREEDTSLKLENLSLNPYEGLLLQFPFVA

T3: human CD98hc endogenously expressed on HCMEC/D3 cells (human)
T3 construct: human brain endothelial cell line
T3 chain: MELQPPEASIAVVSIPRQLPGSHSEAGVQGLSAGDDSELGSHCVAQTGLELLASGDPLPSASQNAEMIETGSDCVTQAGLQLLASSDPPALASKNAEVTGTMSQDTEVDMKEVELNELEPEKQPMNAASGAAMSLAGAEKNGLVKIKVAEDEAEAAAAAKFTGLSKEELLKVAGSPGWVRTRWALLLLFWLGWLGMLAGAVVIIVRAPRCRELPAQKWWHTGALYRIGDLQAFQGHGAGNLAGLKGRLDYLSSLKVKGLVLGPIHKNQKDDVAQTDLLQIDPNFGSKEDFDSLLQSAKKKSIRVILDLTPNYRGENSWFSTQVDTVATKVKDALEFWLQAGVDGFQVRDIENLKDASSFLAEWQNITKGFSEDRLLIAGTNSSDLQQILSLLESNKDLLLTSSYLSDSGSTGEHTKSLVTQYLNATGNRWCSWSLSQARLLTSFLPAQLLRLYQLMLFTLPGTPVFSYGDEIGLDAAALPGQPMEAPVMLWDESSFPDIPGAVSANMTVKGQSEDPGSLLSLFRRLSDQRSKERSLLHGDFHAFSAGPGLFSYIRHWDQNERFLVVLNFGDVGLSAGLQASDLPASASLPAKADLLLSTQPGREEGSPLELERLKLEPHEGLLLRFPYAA

T4: Full length human CD98hc on CHO cells (human)
T4 construct: CHO cells stably overexpressing it; also called CHO-human CD98hc; CHO-huCD98hc
T4 chain: T3 chain

B1: CD98HC.03.002 (antibody, V domains shown)
VH: DVQLVESGGGLVQPGGSRKLSCAASGFTFSTFGMHWVRQAPEKGLEWVAYISGGSTNIYYADTVKGRFTISRDNPKNTLFLQMTSLRSEDTAMYYCARETTLLATNFDYWGQGTTLTVSS
VL: DIQMTQTTSSLSASLGDRVTISCRASQDISNYLNWYQQKPDGTVKLLIYYTSRLHSGVPSRFSGSGSGTDYSLTISNLEQEDIATYFCQQGSTLPRTFGGGTKLEIK
notes: hybridoma IgG
B2: CD98HC.03.031 (antibody, V domains shown)
VH: QVQLQQSGAELVRPGVSVKISCKASGYTFTDYAMHWVKQSHAKSLEWIGVISTYYGDTTYNQKFKDKATMTVDKSSSTAYLELARLTSEDSAIYYCARVWLLSYAMDNWGQGTSVTVSS
VL: DIVMTQSQRFMSTSVGDGVRITCKASQNVRTAVAWYQQKPGQSPKALINLAPNRHTGVPDRFTARGSGTDFTLTISNVQSEDLADYFCLQHWNYPLTFGAGTKLELK
notes: hybridoma IgG
B3: CD98HC.04.003 (antibody, V domains shown)
VH: QVQLQQSGAELAKPGASLKMSCKASGYTFTDYYIHWVKQRPGQDLEWIGYINPNSAYTDSNQKFKDKATLTADKSSNTAYMQLSSLTSEDSAVYYCARKGHFYAPSFAYWGQGTLVTVSA
VL: B1 VL with T69A, E79Q, S92D, R96Y, K107E
notes: hybridoma IgG
B4: CD98HC.04.006 (antibody, V domains shown)
VH: EVNLVESGGDLVQPGGSLRLSCATSGFTFTDYFMSWVRQPPGKALEWLGFIRNKAYGYTTEYSASVKGRFTISRDNSQSIFYLQMNTLRLEDSATYYCARGPFISTAPFAYWGQGTLVTVSA
VL: DIVMSQSPSSLAVSVGETVTMSCKSSQSLLYSSNQKNYLAWYQQKPGQSPKLLIYWGSTRESGVPDRFTGSGSGTDFTLTISSVKAEDLAVYYCQHYYGYPWTFGGGTKLEIK
notes: hybridoma IgG
B5: CD98HC.04.009 (antibody, V domains shown)
VH: QVQLKESGPGLVAPSQSLSITCTVSGFSLTSYGVHWVRQPPGKGLEWLGVIWAGGSTYYNSALMSRLSISKDNAKSQVLLKMSSLQTDDTAMYYCARDNYGGVYLDVWGAGTTVTVSS
VL: ENVLTQSPASMSASPGEKVTMTCRASSSVSSSYLHWYQQKSGASPKLWIYSTSNLASGVPARFSGSGSGTSYSLTISSVEAEDAATYYCQQYSGYPLTFGSGTKLEIK
notes: hybridoma IgG
B6: CD98HC.04.010 (antibody, V domains shown)
VH: QVQLQQSGAELMKPGASVKISCKATGYTFSTYWIEWVKQRPGHGLEWIGEILPGSGTTTYNEKFKGKATFTADTSSNTAYMQLSSLTSEDSAVYYCARRTVYYRYEGIDYWGQGTTLTVSS
VL: QIVLTQSPAIMSASPGEKVTITCSASSSVSYMFWFQQRPGTSPKLWIYTTSNLASGVPARFSGSGSGTSYSLTISRMEAEDAATYYCQQKNNYPFTFGSGTKLEIK
notes: hybridoma IgG
B7: CD98HC.04.011 (antibody, V domains shown)
VH: DVQLQESGPDLVKPSQSLSLTCSVTVYSFTSVYSWHWIRQFPGNKLEWMGYIHDSGTTNYNPSLKSRISVTRDTSKNQFFLQLNSVTTEDTATYYCARGRPYGYDGFAYWGQGTLVTVSA
VL: DIQMTQSSSYLSVSLGDRVTITCKASDHINNWLAWYQQKPGNAPRLLITGAVNLETGVPSRFSGSGSGKDYTLSITSLQTEDVATYYCQQYWSIPRTFGGGTNLEIK
notes: hybridoma IgG
B8: CD98HC.04.012 (antibody, V domains shown)
VH: QVQLQQSGADLVRPGDSVKISCKGSGYTFTDNTLHWVKQSHAKSLEWIGVISPYYGDASYNQKFKGKATMTVDKSSSTAYMELARLTSEDSAIYYCARVGGRLRLGYYFDHWGQGTTLTVSS
VL: NIMMTQSPSSLAVSAGEKVTMNCKSSQSVLSSSNQKNYLAWYQQKPGQSPKLLIYWASTRESGVPARFTGSGSGTDFSLTITSVQAEDLAVYYCLQYLSSYTFGGGTKLEIK
notes: hybridoma IgG
B9: CD98HC.04.013 (antibody, V domains shown)
VH: EVQLVESGGDLGMPGGSLKLSCAASGFALSGYDMSWVRQTPDKRLEWVAYLSSGGGSTYYPYTVKGRFTISRDNAQNTLYLQMSSLKSEDTAIYYCARHSEVRPWFGYWGQGTLVTVSA
VL: DIVMSQSPSSLAVSVGEKVTLTCKSSQSLLYSGNQKNYLAWYQQNPGQSPKLLIYWASTRESGVPDRFTGSGSGTDFTLTISSVKAEDLAVYYCQQYYTYPPTFGAGTKLGLK
notes: hybridoma IgG
B10: CD98HC.04.018 (antibody, V domains shown)
VH: QIQLVQSGPELKKPGETVKISCKASGYTFRNYGMNWVKQAPGKGLKWMGWINTYTGEPTYAEDFKGRFAFSLETSASTAYLQINKLKNEDEATYFCARGEAHWYFDVWGAGTTVTVSS
VL: QIVLTQSPAIMSASLGERVTMTCTASSSVSSSYLYWYQQKPGSSPKLWIYSIFNLASGVPARFSGSGSGTSYSLTISSMEAEDAATYYCHQYHRSPPTFGGGTKLEIK
notes: hybridoma IgG
B11: CD98HC.04.022 (antibody, V domains shown)
VH: EVQLQQSGAELVKPGASVKLSCTASGFNIKDTFMHWMKQRPEQGLEWIGRIDPANANTRYDPKFQGKATITTDTSSNTAYLQLSSLTSEDTAVYYCARDVYYDVWGAGTTVTVSS
VL: DILMTQSPSSMSVSLGDTVTITCHASQGISSNIGWLQQKPGRSFKGLIYHGSNLEDGVPSRFTGSGSGTDYSLTISGLESEDFADYYCVQYAQFPRTFGGGTKLEIQ
notes: hybridoma IgG

target: T1, muCD98hc ECD Avi-His; experiment: ELISA, hybridoma supernatant
Procedure, shortened: (§1)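 Binding of hybridoma supernatants (30 min, room temperature) was read as 450 nm absorbance after TMB development and sulfuric acid quench. Antigens, Avi-His-tagged CD98hc from human, cyno or mouse plus human TfR, were captured at 1 μg/ml onto streptavidin-coated wells for 1 h.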

Binder | OD450
B1 | 0.0802
B2 | 0.0843
B3 | 0.0565
B4 | 0.13
B5 | 0.0688
B6 | 0.0907
B7 | 0.067
B8 | 0.0786
B9 | 0.0717
B10 | 0.079
B11 | 0.0554

target: T5, Human TfR-AVI-His (control) (human, UniProt P02786 89-760); experiment: ELISA, hybridoma supernatant
T5 construct: control protein; also called Avi-His-tagged human TfR; human transferrin receptor
Procedure, shortened: as §1

T5 sequence (P02786 89-760 limits assumed): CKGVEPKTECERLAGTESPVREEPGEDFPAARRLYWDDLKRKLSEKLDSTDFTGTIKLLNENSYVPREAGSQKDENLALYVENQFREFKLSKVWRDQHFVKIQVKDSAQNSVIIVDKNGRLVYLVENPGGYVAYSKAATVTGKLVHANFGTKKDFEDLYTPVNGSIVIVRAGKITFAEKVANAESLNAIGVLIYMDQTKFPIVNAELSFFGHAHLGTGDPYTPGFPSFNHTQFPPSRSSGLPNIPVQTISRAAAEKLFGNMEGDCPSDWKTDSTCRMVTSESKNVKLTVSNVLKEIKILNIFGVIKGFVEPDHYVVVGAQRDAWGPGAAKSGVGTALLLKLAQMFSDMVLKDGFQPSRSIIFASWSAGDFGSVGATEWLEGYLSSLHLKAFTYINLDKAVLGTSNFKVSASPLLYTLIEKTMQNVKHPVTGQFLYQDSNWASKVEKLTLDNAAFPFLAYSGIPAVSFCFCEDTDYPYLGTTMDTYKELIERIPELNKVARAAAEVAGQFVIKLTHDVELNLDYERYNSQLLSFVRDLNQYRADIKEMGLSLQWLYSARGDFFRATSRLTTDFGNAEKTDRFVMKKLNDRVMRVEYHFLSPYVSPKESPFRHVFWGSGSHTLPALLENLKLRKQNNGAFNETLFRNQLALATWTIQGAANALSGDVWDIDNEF

Binder | OD450
B1 | 0.073
B2 | 0.0873
B3 | 0.0601
B4 | 0.129
B5 | 0.0743
B6 | 0.102
B7 | 0.0705
B8 | 0.074
B9 | 0.0667
B10 | 0.0717
B11 | 0.0533

target: T2, Full length mouse CD98hc on CHO cells; experiment: FACS, hybridoma supernatant

Binder | MFI ratio over secondary antibody
B1 | 1
B2 | 1.2
B3 | 1.1
B4 | 1.1
B5 | 1.1
B6 | 1.1
B7 | 1.1
B8 | 1.1
B9 | 1.1
B10 | 1.1
B11 | 1.1

Target: T3, human CD98hc endogenously expressed on …
Experiment: FACS, hybridoma supernatant

Binder | MFI ratio over secondary antibody
B1 | 233
B2 | 198
B3 | 13.8
B4 | 197
B5 | 131
B6 | 151
B7 | 192
B8 | 155
B9 | 124
B10 | 335
B11 | 102

Target: T4, Full length human CD98hc on CHO cells
Experiment: FACS, hybridoma supernatant

Binder | MFI ratio over secondary antibody
B1 | 28.5
B2 | 38.9
B3 | 3.2
B4 | 39
B5 | 18.5
B6 | 26.5
B7 | 31
B8 | 28.3
B9 | 21.2
B10 | 50.3
B11 | 16.6
